From US11306156
Like-named read-outs stand apart in the source and are kept apart here. Each block holds one substance with its values, some of them ahead of it.

Columns and labels:
[1] = target: D3H44 light chain Q124E_V133W_S176T_T178L_T180E; assay: SMCA co-expression, LC-MS; competing light chain m6
[2] = target: D3H44 light chain Q124E_V133W_S176T_T178L_T180E; assay: SMCA: 2 heavy + 2 light chains co-expressed, protein A, LC-MS; competing light chain m24
[3] = target: D3H44 light chain P44F_S131K; assay: SMCA: LC-MS of protein A purified product after co-expression of H1, H2, L1, L2 in CHO-3E7; competing light chain m46
[4] = target: D3H44 Fab heavy chain L124E_K145M_Q179E; assay: LCCA, SPR of light chain tags; L1:L2 DNA 1:3 normalized to 1:1; competitor m8
[5] = target: D3H44 Fab heavy chain L124R_D146N_Q179K; assay: as above
[6] = target: D3H44 Fab heavy chain L124E_L143E_K145T; assay: LCCA, SPR of light chain tags; L1:L2 DNA 1:3 normalized to 1:1; competitor m10
[7] = target: D3H44 Fab heavy chain L124R_Q179K; assay: as above
[8] = target: D3H44 Fab heavy chain L124E_L143E_K145T; assay: LCCA, SPR of light chain tags; L1:L2 DNA 1:9 normalized to 1:1; competitor m10
[9] = target: D3H44 Fab heavy chain L124R_Q179K; assay: as above
[10] = target: D3H44 Fab heavy chain L124E_L143E_K145M; assay: LCCA, L1:L2 DNA 1:3 normalised to 1:1, SPR of light chain tags; competitor m55
[11] = target: D3H44 Fab heavy chain L124R_D146N_Q179K; assay: as above
[12] = target: D3H44 Fab heavy chain L124R_D146N_Q179K (H1 of LCCA sets 9358, 9359, 9357, 9351, 9352, 9353, 9354, 9350)
[13] = target: D3H44 Fab heavy chain L124R_D146N_Q179K (H1 of LCCA sets 9358, 9359, 9357, 9351, 9352, 9353, 9354, 9350); remark: listed apart in the source
[14] = target: D3H44 Fab heavy chain L124E_L143D_K145T (H1 of LCCA sets 9214, 9217, 9216, 9219, 9220, 9225, 9228, 9229); assay: LCCA: H1 co-expressed with L1 and L2 (DNA 333:250:749 ng), His-tag capture on SPR chip, light chain tags detected with anti-HA/anti-FLAG; competitor L1 Q124K_V133G_S176R_T178K
[15] = target: D3H44 Fab heavy chain L124E_L143D_K145T (H1 of LCCA sets 9214, 9217, 9216, 9219, 9220, 9225, 9228, 9229); assay: LCCA: H1 co-expressed with L1 and L2 (DNA 333:250:749 ng), His-tag capture on SPR chip, light chain tags detected with anti-HA/anti-FLAG; competitor L1 Q124K_V133G_S176R_T178R
[16] = target: D3H44 Fab heavy chain L124E_L143E_K145M (H1 of LCCA sets 9269, 9266, 9267, 9260, 9262, 9263); assay: as above
[17] = target: D3H44 Fab heavy chain L124R_D146N_Q179K (H1 of LCCA sets 9358, 9359, 9357, 9351, 9352, 9353, 9354, 9350); assay: LCCA: H1 co-expressed with L1 and L2 (DNA 333:250:749 ng), His-tag capture on SPR chip, light chain tags detected with anti-HA/anti-FLAG; competitor L2 Q124K_V133G_Q160K_S176R
[18] = target: D3H44 Fab heavy chain L124R_D146N_Q179K (H1 of LCCA sets 9358, 9359, 9357, 9351, 9352, 9353, 9354, 9350); assay: LCCA: H1 co-expressed with L1 and L2 (DNA 333:250:749 ng), His-tag capture on SPR chip, light chain tags detected with anti-HA/anti-FLAG; competitor L2 Q124K_V133G_S176R_T178K
[19] = target: D3H44 light chain Q124R_Q160K_T178R; assay: SMCA: LC-MS of protein A purified product after co-expression of H1, H2, L1, L2 in CHO-3E7; competing light chain m48
[20] = target: D3H44 light chain Q124R; assay: SMCA: LC-MS of protein A purified product after co-expression of H1, H2, L1, L2 in CHO-3E7; competing light chain m50
[21] = target: D3H44 light chain P44F_Q124R_Q160K_T178R; assay: SMCA: LC-MS of protein A purified product after co-expression of H1, H2, L1, L2 in CHO-3E7; competing light chain m46
[22] = target: D3H44 light chain Q124E_Q160E_T180E; assay: SMCA: 2 heavy + 2 light chains co-expressed, protein A, LC-MS; competing light chain m4
[23] = target: D3H44 Fab heavy chain L124E_L143E_K145M; assay: LCCA, L1:L2 DNA 1:3 normalised to 1:1, SPR of light chain tags; competitor m56
[24] = target: D3H44 Fab heavy chain L124R_D146N_Q179K; assay: as above
[25] = target: D3H44 Fab heavy chain L124E_L143D_K145T (H1 of LCCA sets 9214, 9217, 9216, 9219, 9220, 9225, 9228, 9229)
[26] = target: D3H44 Fab heavy chain L124E_L143E_K145M (H1 of LCCA sets 9269, 9266, 9267, 9260, 9262, 9263)
[27] = target: D3H44 Fab heavy chain L124E_L143D_K145T (H1 of LCCA sets 9214, 9217, 9216, 9219, 9220, 9225, 9228, 9229); remark: listed apart in the source
[28] = target: D3H44 Fab heavy chain L124E_L143E_K145M (H1 of LCCA sets 9269, 9266, 9267, 9260, 9262, 9263); remark: listed apart in the source
[29] = target: D3H44 Fab heavy chain L124E_L143D_K145T (H1 of LCCA sets 9214, 9217, 9216, 9219, 9220, 9225, 9228, 9229); assay: LCCA: H1 co-expressed with L1 and L2 (DNA 333:250:749 ng), His-tag capture on SPR chip, light chain tags detected with anti-HA/anti-FLAG; competitor L2 V133G_S176D_T178D_T180E
[30] = target: D3H44 Fab heavy chain L124E_L143E_K145M (H1 of LCCA sets 9269, 9266, 9267, 9260, 9262, 9263); assay: as above
[31] = target: D3H44 Fab heavy chain L124R_D146N_Q179K (H1 of LCCA sets 9358, 9359, 9357, 9351, 9352, 9353, 9354, 9350); assay: LCCA: H1 co-expressed with L1 and L2 (DNA 333:250:749 ng), His-tag capture on SPR chip, light chain tags detected with anti-HA/anti-FLAG; competitor L1 Q124E_V133G_S176D_T178E_T180E
[32] = target: D3H44 Fab heavy chain L124E_L143D_K145T (H1 of LCCA sets 9214, 9217, 9216, 9219, 9220, 9225, 9228, 9229); assay: LCCA: H1 co-expressed with L1 and L2 (DNA 333:250:749 ng), His-tag capture on SPR chip, light chain tags detected with anti-HA/anti-FLAG; competitor L2 Q124E_V133G_S176D_T178D_T180E
[33] = target: D3H44 Fab heavy chain L124E_L143D_K145T (H1 of LCCA sets 9214, 9217, 9216, 9219, 9220, 9225, 9228, 9229); assay: LCCA: H1 co-expressed with L1 and L2 (DNA 333:250:749 ng), His-tag capture on SPR chip, light chain tags detected with anti-HA/anti-FLAG; competitor L2 Q124E_V133G_S176D_T178E_T180E
[34] = target: tissue factor (TF) antigen (UniProt P13726); assay: SPR; against wild-type D3H44 Fab; * estimated from the same Fab with another L chain tag
[35] = target: tissue factor (TF) antigen (UniProt P13726); assay: SPR (ProteOn), Fab captured on anti-penta His, TF as analyte, 1:1 fit; * estimated from the same Fab with another L chain tag

% H1L1 Pairing (over all H1 species) [1]: 100%
Change in % H1L1 Pairing (over all H1 species) with respect to wild type [1]: 38.1%
% H1L1 Pairing (over all H1 species) [2]: 100%
Substance: D3H44 heavy chain L124A_L143F_Q179K (from UniProt P0DOX5 2-448)

% H1L1 Pairing (over all H1 species) [3]: 75.5%
Substance: D3H44 heavy chain L45P_K145T_H172R_Q179E (from UniProt P0DOX5 2-448)

H1L1:H1L2 normalized median ratio (% of heavy chain paired) [4]: 6
H2L2:H2L1 normalized median ratio (% of heavy chain paired) [5]: 90
H1L1:H1L2 normalized median ratio (% of heavy chain paired) [6]: 5
H2L2:H2L1 normalized median ratio (% of heavy chain paired) [7]: 92
H1L1:H1L2 normalized median ratio (% of heavy chain paired) [8]: 2
H2L2:H2L1 normalized median ratio (% of heavy chain paired) [9]: 84
H1L1:H1L2 normalized median ratio [10]: 16%
H2L2:H2L1 normalized median ratio [11]: 84%
median LCCA performance normalized to a L1:L2 DNA ratio of 1:1 (ratio H1-L1:H1-L2), H1-L1 share (ratio part of 100) [12]: 90
median LCCA performance normalized to a L1:L2 DNA ratio of 1:1 (ratio H1-L1:H1-L2), H1-L1 share (ratio part of 100) [13]: 89
median LCCA performance normalized to a L1:L2 DNA ratio of 1:1 (ratio H1-L1:H1-L2), H1-L2 share (ratio part of 100) [14]: 21
median LCCA performance normalized to a L1:L2 DNA ratio of 1:1 (ratio H1-L1:H1-L2), H1-L2 share (ratio part of 100) [15]: 17
median LCCA performance normalized to a L1:L2 DNA ratio of 1:1 (ratio H1-L1:H1-L2), H1-L2 share (ratio part of 100) [16]: 16
median LCCA performance normalized to a L1:L2 DNA ratio of 1:1 (ratio H1-L1:H1-L2), H1-L1 share (ratio part of 100) [17]: 82
median LCCA performance normalized to a L1:L2 DNA ratio of 1:1 (ratio H1-L1:H1-L2), H1-L1 share (ratio part of 100) [18]: 84
Substance: D3H44 light chain Q124E_V133G_S176D_T178E_T180E

% H1L1 Pairing (over all H1 species) [19]: 83.2%
% H1L1 Pairing (over all H1 species) [20]: 91.5%
Substance: D3H44 heavy chain L143E_K145T (from UniProt P0DOX5 2-448)

% H1L1 Pairing (over all H1 species) [21]: 88.1%
Substance: D3H44 heavy chain L45P_L143E_K145T (from UniProt P0DOX5 2-448)

% H1L1 Pairing (over all H1 species) [22]: 100%
Substance: D3H44 heavy chain H172R_S186R (from UniProt P0DOX5 2-448)

H1L1:H1L2 normalized median ratio [23]: 84%
H1L1:H1L2 normalized median scalar value ln(r1/f1) [23]: 1.67
H2L2:H2L1 normalized median ratio [24]: 16%
median LCCA performance normalized to a L1:L2 DNA ratio of 1:1 (ratio H1-L1:H1-L2), H1-L1 share (ratio part of 100) [25]: 84
median LCCA performance normalized to a L1:L2 DNA ratio of 1:1 (ratio H1-L1:H1-L2), H1-L1 share (ratio part of 100) [26]: 85
median LCCA performance normalized to a L1:L2 DNA ratio of 1:1 (ratio H1-L1:H1-L2), H1-L1 share (ratio part of 100) [27]: 81
median LCCA performance normalized to a L1:L2 DNA ratio of 1:1 (ratio H1-L1:H1-L2), H1-L1 share (ratio part of 100) [28]: 88
median LCCA performance normalized to a L1:L2 DNA ratio of 1:1 (ratio H1-L1:H1-L2), H1-L1 share (ratio part of 100) [29]: 82
median LCCA performance normalized to a L1:L2 DNA ratio of 1:1 (ratio H1-L1:H1-L2), H1-L1 share (ratio part of 100) [30]: 63
median LCCA performance normalized to a L1:L2 DNA ratio of 1:1 (ratio H1-L1:H1-L2), H1-L2 share (ratio part of 100) [31]: 16
median LCCA performance normalized to a L1:L2 DNA ratio of 1:1 (ratio H1-L1:H1-L2), H1-L1 share (ratio part of 100) [32]: 85
median LCCA performance normalized to a L1:L2 DNA ratio of 1:1 (ratio H1-L1:H1-L2), H1-L1 share (ratio part of 100) [33]: 79
Substance: D3H44 light chain Q124K_V133G_S176R_T178K

Change in KD with respect to wild type (-(log(KD design) - log(KD wt))) [34]: -0.12
Kd [35]: 0.21 nM
Substance: D3H44 Fab heterodimer, H1 L124E_L143E_K145T / L1 Q124K_V133G_S176R_T178K (H1L1 of LCCA sets 9308 and 9300)
